Experimental data taken from patent US20240116985A1 (published 2024).
Starred links: 1 amine or outer side, 2 acyl side, 3 side chain; linkers in the order of their positions; H or OH if unused. Positions of bridges follow the written chain, without caps; N, C: chain ends. Non-standard residues stand in square brackets, D forms with d. Primed or numbered codes have the meaning given here. B5(4) = 2,2-bis(4-pentenyl)glycine = 2-amino-2-(pent-4-en-1-yl)hept-6-enoic acid (stitching residue), C=CCCCC(CCCC=C)(N[*:1])C(=O)[*:2]; B5(9) = 2-amino-2-(pent-4-en-1-yl)hept-6-enoic acid (2,2-bis(4-pentenyl)glycine), C=CCCCC(CCCC=C)(N[*:1])C(=O)[*:2]; B5(14) = 2-amino-2-(pent-4-en-1-yl)hept-6-enoic acid (bis-pentenylglycine), C=CCCCC(CCCC=C)(N[*:1])C(=O)[*:2]; WCHO = 1-formyl-L-tryptophan, O=Cn1cc(C[C@H](N[*:1])C(=O)[*:2])c2ccccc21; S(OMe) = O-methyl-L-serine, COC[C@H](N[*:1])C(=O)[*:2]; Phe(2-CONH2) = NC(=O)c1ccccc1C[C@H](N)C(=O)O; Ala(2-furyl) = N[C@@H](Cc1ccco1)C(=O)O; His(τ-Me) = Cn1cnc(C[C@H](N)C(=O)O)c1; Bta = N[C@@H](Cc1csc2ccccc12)C(=O)O; αAllylPro = C=CC[C@@]1(C(=O)O)CCCN1; S8 = C=CCCCCCC[C@](C)(N)C(=O)O

T1: full-length beta-Catenin (Uniprot ID P35222) (Homo sapiens (Human), UniProt P35222 1-781)
T1 construct: also called bCat; B-Catenin
T1 sequence: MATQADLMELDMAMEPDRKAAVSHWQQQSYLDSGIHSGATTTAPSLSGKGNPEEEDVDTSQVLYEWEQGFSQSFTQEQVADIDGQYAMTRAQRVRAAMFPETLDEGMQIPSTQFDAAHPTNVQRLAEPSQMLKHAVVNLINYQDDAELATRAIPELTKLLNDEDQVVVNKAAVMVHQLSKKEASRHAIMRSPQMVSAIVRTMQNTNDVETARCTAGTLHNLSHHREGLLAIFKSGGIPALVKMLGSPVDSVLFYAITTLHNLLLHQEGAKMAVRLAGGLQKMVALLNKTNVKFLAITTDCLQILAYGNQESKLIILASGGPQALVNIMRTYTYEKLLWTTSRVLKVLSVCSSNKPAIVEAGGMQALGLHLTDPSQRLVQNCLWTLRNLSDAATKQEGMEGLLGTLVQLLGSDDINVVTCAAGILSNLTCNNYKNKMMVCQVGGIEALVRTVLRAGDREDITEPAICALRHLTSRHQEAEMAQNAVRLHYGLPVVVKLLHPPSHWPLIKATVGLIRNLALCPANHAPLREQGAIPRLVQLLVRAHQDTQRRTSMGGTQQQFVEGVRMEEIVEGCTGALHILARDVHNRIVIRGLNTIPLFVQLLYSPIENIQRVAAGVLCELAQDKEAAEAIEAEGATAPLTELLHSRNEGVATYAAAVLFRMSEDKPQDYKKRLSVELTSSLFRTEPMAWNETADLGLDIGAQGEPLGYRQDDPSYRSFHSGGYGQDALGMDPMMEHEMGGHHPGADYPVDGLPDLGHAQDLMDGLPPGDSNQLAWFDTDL

B1: I-332 (peptide)
peptide: Ac-[αAllylPro]DA[B5(14)]DDAAHV[S8]FWQ-NH2
modifications: staple 1-4, 4-11; not fully specified (residue 9)
notes: Stapled peptide composition; also called Ac-PL3-Asp-Ala-B5-Asp-Asp-Ala-Ala-3meH-Val-S8-Phe-Trp-Gln-NH2
B2: I-337 (peptide)
peptide: XDAXDDAAFVXFXQ
modifications: not fully specified; N-terminal Ac; PL3 at 1; B5 at 4; S8 at 11; 4CBMF at 12; BztA at 13; C-terminal NH2; stapled PL3-B5 and B5-S8 (olefin metathesis)
notes: Stapled peptide composition; also called Ac-PL3-Asp-Ala-B5-Asp-Asp-Ala-Ala-Phe-Val-S8-4CBMF-BztA-Gln-NH2
B3: I-336 (peptide)
peptide: Ac-[αAllylPro]DA[B5(4)]DDAAFV[S8][Phe(2-CONH2)][Bta]Q-NH2
modifications: staple 1-4, 4-11
notes: Stapled peptide composition; also called Ac-PL3-Asp-Ala-B5-Asp-Asp-Ala-Ala-Phe-Val-S8-2CBMF-BztA-Gln-NH2
B4: I-345 (peptide)
peptide: Ac-[αAllylPro]D[S(OMe)][B5(9)]DDAAFV[S8]F[Bta]Q-NH2
modifications: staple 1-4, 4-11
notes: Stapled peptide composition; also called Ac-PL3-Asp-S(OMe)-B5-Asp-Asp-Ala-Ala-Phe-Val-S8-Phe-BztA-Gln-NH2
B5: I-346 (peptide)
peptide: XDQXDDAAFVXFXQ
modifications: not fully specified; N-terminal Ac; PL3 at 1; B5 at 4; S8 at 11; BztA at 13; C-terminal NH2; stapled PL3-B5 and B5-S8 (olefin metathesis)
notes: Stapled peptide composition; also called Ac-PL3-Asp-Gln-B5-Asp-Asp-Ala-Ala-Phe-Val-S8-Phe-BztA-Gln-NH2
B6: I-342 (peptide)
peptide: Ac-[αAllylPro]DA[B5(9)]DDAAFT[S8]F[Bta]Q-NH2
modifications: staple 1-4, 4-11
notes: Stapled peptide composition; also called Ac-PL3-Asp-Ala-B5-Asp-Asp-Ala-Ala-Phe-Thr-S8-Phe-BztA-Gln-NH2
B7: I-347 (peptide)
peptide: XDQXDDAAFVXFXQ
modifications: not fully specified; N-terminal Ac; PL3 at 1; B5 at 4; S8 at 11; BztA at 13; C-terminal NH2; stapled PL3-B5 and B5-S8 (olefin metathesis)
notes: as for B5
B8: I-341 (peptide)
peptide: Ac-[αAllylPro]DA[B5(9)]DDAAFV[S8]Y[Bta]Q-NH2
modifications: staple 1-4, 4-11
notes: Stapled peptide composition; also called Ac-PL3-Asp-Ala-B5-Asp-Asp-Ala-Ala-Phe-Val-S8-Tyr-BztA-Gln-NH2
B9: I-330 (peptide)
peptide: Ac-[αAllylPro]DA[B5(4)]DDAA[His(τ-Me)]V[S8]FWQ-NH2
modifications: staple 1-4, 4-11
notes: Stapled peptide composition; also called Ac-PL3-Asp-Ala-B5-Asp-Asp-Ala-Ala-1meH-Val-S8-Phe-Trp-Gln-NH2
B10: I-350 (peptide)
peptide: XDAXADAAFVXFWQ
modifications: not fully specified; N-terminal Ac; PL3 at 1; B5 at 4; S8 at 11; C-terminal NH2; stapled PL3-B5 and B5-S8 (olefin metathesis)
notes: Stapled peptide composition; also called Ac-PL3-Asp-Ala-B5-Ala-Asp-Ala-Ala-Phe-Val-S8-Phe-Trp-Gln-NH2
B11: I-327 (peptide)
peptide: Ac-[αAllylPro]DA[B5(4)]DDAA[Ala(2-furyl)]V[S8]FWQ-NH2
modifications: staple 1-4, 4-11; not fully specified; printed as Ac-PL3-Asp-Ala-B5-Asp-Asp-Ala-Ala-2FurA-Val-S8-Phe-Trp-Gln-NH2
notes: Stapled peptide composition; also called Ac-PL3-Asp-Ala-B5-Asp-Asp-Ala-Ala-2FurA-Val-S8-Phe-Trp-Gln-NH2
B12: I-331 (peptide)
peptide: Ac-[αAllylPro]DA[B5(14)]DDAAHV[S8]FWQ-NH2
modifications: staple 1-4, 4-11; not fully specified (residue 9)
notes: as for B1
B13: I-338 (peptide)
peptide: XDAXDDAAFVXFXQ
modifications: not fully specified; N-terminal Ac; PL3 at 1; B5 at 4; S8 at 11; 4CBMF at 12; BztA at 13; C-terminal NH2; stapled PL3-B5 and B5-S8 (olefin metathesis)
notes: as for B2
B14: I-329 (peptide)
peptide: Ac-[αAllylPro]DA[B5(4)]DDAA[His(τ-Me)]V[S8]FWQ-NH2
modifications: staple 1-4, 4-11; not fully specified; printed as Ac-PL3-Asp-Ala-B5-Asp-Asp-Ala-Ala-1meH-Val-S8-Phe-Trp-Gln-NH2
notes: as for B9
B15: I-353 (peptide)
peptide: XDAXDDAAAVXFWQ
modifications: not fully specified; N-terminal Ac; PL3 at 1; B5 at 4; S8 at 11; C-terminal NH2; stapled PL3-B5 and B5-S8 (olefin metathesis)
notes: Stapled peptide composition; also called Ac-PL3-Asp-Ala-B5-Asp-Asp-Ala-Ala-Ala-Val-S8-Phe-Trp-Gln-NH2
B16: I-351 (peptide)
peptide: XDAXADAAFVXFWQ
modifications: not fully specified; N-terminal Ac; PL3 at 1; B5 at 4; S8 at 11; C-terminal NH2; stapled PL3-B5 and B5-S8 (olefin metathesis)
notes: as for B10
B17: I-349 (peptide)
peptide: XAAXDDAAFVXFWQ
modifications: not fully specified; N-terminal Ac; PL3 at 1; B5 at 4; S8 at 11; C-terminal NH2; stapled PL3-B5 and B5-S8 (olefin metathesis)
notes: Stapled peptide composition; also called Ac-PL3-Ala-Ala-B5-Asp-Asp-Ala-Ala-Phe-Val-S8-Phe-Trp-Gln-NH2
B18: I-333 (peptide)
peptide: Ac-[αAllylPro]DA[B5(4)]DDAAFS[S8]F[WCHO]S-NH2
modifications: staple 1-4, 4-11
notes: Stapled peptide composition; also called Ac-PL3-Asp-Ala-B5-Asp-Asp-Ala-Ala-Phe-Ser-S8-Phe-WCHO-Ser-NH2

The binders below were run against T1, full-length beta-Catenin (Uniprot ID …) (assay: fluorescence polarization competition vs 5FAM-TCF4(10-53) on full-length beta-catenin).
Procedure: The plate was incubated protected from light for 60 minutes at 20° C. prior to read. Reads were performed on a CLARIOstar plate reader (BMG Labtech) in duplicate, and data were fitted to a 1:1 binding model with hill slope using an in-house script. All provided concentrations are final concentrations.

IC50 [µM] | Binder
5 | B1
5 | B2
0.153 | B3
0.134 | B4
0.18 | B5
0.0585 | B6
0.121 | B7
2 | B8
5 | B9
5 | B10
4.72 | B11
5 | B12
5 | B13
5 | B14
5 | B15
5 | B16
5 | B17
2.76 | B18
